Laboratory results: PMC10992996, “Human CRB1 and CRB2 form homo- and heteromeric protein complexes in the retina” (Life Science Alliance, 2024)

Biological target: T1, CRB1-FLAG p.C480R (human, UniProt P82279 26-1406, p.C480R)
T1 construct: Crumbs homolog 1, canonical form, human, cDNA NM_202153 as printed, with a patient missense mutation; Made by site-directed mutagenesis of m1; also called CRB1 p.C480R; CRB1-FLAG MT; source: HEK293T, transfected, in lysate; not shown: Strep-Strep-FLAG, N-terminal, kept
T1 sequence (looked up): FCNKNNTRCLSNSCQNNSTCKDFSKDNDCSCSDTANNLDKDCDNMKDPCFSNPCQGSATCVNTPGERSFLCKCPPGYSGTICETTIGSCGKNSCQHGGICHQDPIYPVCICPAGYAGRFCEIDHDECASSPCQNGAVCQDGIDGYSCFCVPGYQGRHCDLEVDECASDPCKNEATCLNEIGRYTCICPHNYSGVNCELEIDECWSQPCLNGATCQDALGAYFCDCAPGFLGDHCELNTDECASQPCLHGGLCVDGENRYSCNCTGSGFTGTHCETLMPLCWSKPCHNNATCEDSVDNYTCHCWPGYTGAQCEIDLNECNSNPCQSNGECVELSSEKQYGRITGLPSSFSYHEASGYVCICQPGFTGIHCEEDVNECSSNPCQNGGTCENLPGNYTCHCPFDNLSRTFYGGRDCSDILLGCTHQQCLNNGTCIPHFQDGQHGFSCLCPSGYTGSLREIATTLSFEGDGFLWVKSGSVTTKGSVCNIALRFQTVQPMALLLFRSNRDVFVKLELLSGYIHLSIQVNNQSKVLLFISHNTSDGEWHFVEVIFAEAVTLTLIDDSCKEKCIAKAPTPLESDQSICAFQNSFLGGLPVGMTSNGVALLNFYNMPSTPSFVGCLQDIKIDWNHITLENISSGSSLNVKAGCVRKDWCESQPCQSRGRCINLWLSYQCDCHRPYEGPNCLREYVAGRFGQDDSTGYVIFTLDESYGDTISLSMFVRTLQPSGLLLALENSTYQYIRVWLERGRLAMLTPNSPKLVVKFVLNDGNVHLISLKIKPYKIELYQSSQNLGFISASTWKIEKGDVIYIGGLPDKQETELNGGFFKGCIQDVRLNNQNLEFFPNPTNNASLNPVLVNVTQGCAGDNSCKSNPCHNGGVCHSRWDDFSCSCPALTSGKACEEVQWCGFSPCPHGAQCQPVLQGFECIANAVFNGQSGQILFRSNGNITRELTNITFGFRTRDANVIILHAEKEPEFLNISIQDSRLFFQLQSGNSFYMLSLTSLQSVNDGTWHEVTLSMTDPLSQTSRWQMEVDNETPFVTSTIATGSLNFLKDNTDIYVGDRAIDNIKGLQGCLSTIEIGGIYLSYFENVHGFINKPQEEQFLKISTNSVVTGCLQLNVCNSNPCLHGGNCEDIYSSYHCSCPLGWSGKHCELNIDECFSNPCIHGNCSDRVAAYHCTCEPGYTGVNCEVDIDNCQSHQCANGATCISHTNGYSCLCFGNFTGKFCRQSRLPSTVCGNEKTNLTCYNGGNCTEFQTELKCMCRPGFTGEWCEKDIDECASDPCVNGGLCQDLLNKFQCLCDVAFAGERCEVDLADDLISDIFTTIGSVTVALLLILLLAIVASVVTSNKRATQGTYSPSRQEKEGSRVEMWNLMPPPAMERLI
Assay: co-IP; HEK293T cells co-transfected pairwise with a FLAG and an HA construct, 48 h; lysis in TBS (30 mM Tris-HCl pH 7.4, 150 mM NaCl) with 0.5% Nonidet P40; FLAG-IP on ANTI-FLAG M2 Affinity Gel 60-90 min at 4°C, elution with FLAG peptide; Western blot with HA and FLAG antibodies; for mutants HA/FLAG signal in eluates relative to WT, three biological replicates
Settings: partners not purified

B1: Human canonical CRB2 (Crumbs homolog 2) (natural protein)
chain: not shown
notes: Crumbs homolog 2, human, cDNA NM_173689; Stood as bait (FLAG copy) and as prey (HA copy) in the pairwise co-IP matrix; each copy carries only one of the two tags; The FLAG copy was the bait of the mass spectrometry pull-downs; also called CRB2-FLAG; CRB2-HA; source: HEK293T, transfected, in lysate (co-IP); HEK293T, transfected, FLAG-IP on beads, washed and purified with 0.01% SDS (retina …)
percent of the interaction capacity relative to CRB1 WT: 96%
